The source of these data is patent US20120141538A1 (UNIVERSITE PIERRE ET MARIE CURIE PARIS VI, published 2012).

Assay [1] has as its target T1, human CX3CR1 receptor (human, UniProt P49238 1-355).
T1 construct: Expressed on stably transfected HEK or CHO cells, or endogenous on human PBMC (CD8+ T cells, NK cells); also called HEK-CX3CR1 cells; CHO-CX3CR1 cells
T1 sequence: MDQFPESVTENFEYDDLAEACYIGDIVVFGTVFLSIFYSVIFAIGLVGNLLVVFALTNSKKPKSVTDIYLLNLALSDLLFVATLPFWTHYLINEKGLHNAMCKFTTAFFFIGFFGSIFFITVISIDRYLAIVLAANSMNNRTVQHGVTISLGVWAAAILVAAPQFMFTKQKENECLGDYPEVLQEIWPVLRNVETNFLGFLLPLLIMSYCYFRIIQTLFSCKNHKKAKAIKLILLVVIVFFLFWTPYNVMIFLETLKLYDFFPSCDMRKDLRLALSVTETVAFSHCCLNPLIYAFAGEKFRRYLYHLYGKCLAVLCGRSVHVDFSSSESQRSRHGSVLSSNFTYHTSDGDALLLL
Kind of assay: competitive radioligand binding, HEK-CX3CR1 cells, [125I]-CX3CL1 tracer. The method, then:
(§1) Assays were performed as previously described by Moatti et al. (2001, Blood 97, 1925-8). Competitive binding to HEK-CX3CR1 and CHO-CX3CR1 cells was performed with 50 pM [¹²⁵I]-CX3CL1 (Amersham General Electric, Saclay, France) plus variable amounts of unlabeled ligand. Each concentration was assayed in duplicate. After 2 h at 37° C., cells were washed and radioactivity in the cell pellet was quantified with a gamma counter (LKB Wallac, Saint Quentin en Yvelines, France).
CX3CL1 in a competition binding, with HEK-CX3CR1 cells and [¹²⁵I]-CX3CL1 as a tracer. The F1 analogue interacted with CX3CR1, although with a lower affinity than CX3CL1. […] A similar difference in affinity was apparent when F1 and CX3CL1 were tested on CHO-CX3CR1 cells, and when the affinity of CX3CL1-Ig was compared to that of F1-Ig.

The target of assay [2] is T1, human CX3CR1 receptor. The experiment in a line: competitive radioligand binding, CX3CR1-expressing HEK cells, 125I-FKN tracer. The procedure:
as §1
(§2) Assays for determining the competitive radioligand binding of F2 and of F2-Ig to CX3CR1 were carried out as described in Example 1.8.

For a further assay, the target named is T2, CCR5 (on HEK-CCR5 cells) (UniProt P51681 1-352, limits assumed).
T2 construct: whole, on cells; also called CCR5-expressing cells
T2 sequence (P51681 whole entry): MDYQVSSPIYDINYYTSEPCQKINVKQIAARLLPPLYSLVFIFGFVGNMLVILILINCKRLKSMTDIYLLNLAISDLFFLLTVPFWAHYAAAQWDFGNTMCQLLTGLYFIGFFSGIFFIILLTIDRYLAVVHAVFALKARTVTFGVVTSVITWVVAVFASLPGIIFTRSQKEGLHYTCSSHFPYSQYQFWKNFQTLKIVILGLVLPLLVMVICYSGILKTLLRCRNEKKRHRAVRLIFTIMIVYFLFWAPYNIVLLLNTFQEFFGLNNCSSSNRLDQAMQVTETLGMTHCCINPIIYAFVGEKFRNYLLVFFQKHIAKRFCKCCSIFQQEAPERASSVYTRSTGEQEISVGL
The experiment in a line: flow cytometry of phage on cells. A general note: In flow cytometry, cells or beads pass a laser one at a time.

The target of assay [3] is T1, human CX3CR1 receptor. The experiment in a line: competitive radioligand binding, CX3CR1-expressing CHO cells, 125I-FKN tracer. The procedure:
as §1, §2

The target in assay [4] is T1, human CX3CR1 receptor. Kind of assay: flow cytometry of phage on cells.

Changes are numbered by the printed parent chain.

B1: CX3CL1 (native human soluble chemokine) (ligand)
chain: QHHGVTKCNITCSKMTSKIPVALLIHYQQNQASCGKRAIILETRQHRLFCADPKEQWVKDAMQHLDRQAAALTRNG
notes: The tracer is iodinated CX3CL1 from Amersham; also called fractalkine; FKN
The IC50 is the concentration that inhibits the measured activity by half. A lower IC50 goes with greater potency in that assay. Regarding B1, in the assay with human CX3CR1 receptor [1], the IC50 is 0.16 nM and the “Log IC50” value was -9.79. This molecule showed an IC50 in the assay with human CX3CR1 receptor [2] of 0.58 nM.

B2: CX3CL1-phage (human CX3CL1 chemokine domain displayed on phage) (other, not shown: large carriers)
chain: B1 chain
notes: also called phage-chemokine
With B2, in the assay with CCR5 (on HEK-CCR5 cells), the binding result is reported as “no binding”.

B3: F2 (CX3CL1 analogue with N-terminal sequence QPQGVS) (ligand)
chain: B1 chain with H2P, H3Q, T6S
notes: Produced by chemical synthesis
In the assay with human CX3CR1 receptor [2], B3 came in with an IC50 of 0.05 nM.

B4: CX3CL1-Ig (CX3CL1 chemokine domain fused to murine Fc) (Fc fusion)
chain: QHHGVTKCNITCSKMTSKIPVALLIHYQQNQASCGKRAIILETRQHRLFCADPKEQWVKDAMQHLDRQAAALTRNGEPRGPTIKPCPPCKCPAPNLEGGPSVFIFPPKIKDVLMISLSPIVTCVVVDVSEDDPDVQISWFVNNVEVHTAQTQTHREDYNSTLRVVSALPIQHQDWMSGKAFACAVNNKDLPAPIERTISKPKGSVRAPQVYVLPPPEEEMTKKQVTLTCMVTDFMPEDIYVEWTNNGKTELNYKNTEPVLDSDGSYFMYSKLRVEKKNWVERNSYSCSVVHEGLHNHHTTKSFSRTPGK
notes: domain: Fcγ2a fragment; also called FKN-Ig
Consider B4, for which the IC50 with human CX3CR1 receptor [3] was found to be 1.47 nM.

B5: F2-Ig (F2 fused to a domain of an immunoglobulin) (Fc fusion)
chain: QPQGVSKCNITCSKMTSKIPVALLIHYQQNQASCGKRAIILETRQHRLFCADPKEQWVKDAMQHLDRQAAALTRNGAAAHPRGPTIKPCPPCKCPAPNLEGGPSVFIFPPKIKDVLMISLSPIVTCVVVDVSEDDPDVQISWFVNNVEVHTAQTQTHREDYDSTLRVVSALPIQHQDWMSGKAFACAVNNKDLPAPIGRTISKPKGSVRAPQVYVLPPPEEEMTKKQVTLTCMVTDFMPEDIYVEWTNNGKTELNYKNTEPVLDSDGSYFMYSKLRVEKKNWVERNSYSCSVVHEGLHNHHTTKSFSRPPGK
The molecule B5 showed an IC50 with human CX3CR1 receptor [3] of 0.39 nM.

B6: CCL5-expressing phage (other, UniProt P13501 24-91, looked up, not shown: large carriers)
chain: SPYSSDTTPCCFAYIARPLPRAHIKEYFYTSGKCSNPAVVFVTRKNRQVCANPEKKWVREYINSLEMS
notes: Control phage
In the case of B6, in the assay with human CX3CR1 receptor [4], the binding result is on record as “no binding”.

B7: F1 (CX3CL1 analogue, soluble chemokine domain with N-terminal sequence ILDNGVS) (ligand)
chain: ILDNGVSKCNITCSKMTSKIPVALLIHYQQNQASCGKRAIILETRQHRLFCADPKEQWVKDAMQHLDRQAAALTRNG
notes: also called F1 analogue; soluble F1
As for B7, in the assay with human CX3CR1 receptor [1], the IC50 was found to be 1.9 nM and the “Log IC50” value was -8.73.

B8: phage-F1 (phage clone ILDNGVS) (other, not shown: large carriers)
chain: B7 chain
For B8, in the assay with CCR5 (on HEK-CCR5 cells), the binding result was “no binding”.
